Assay results published in patent US11193150B2, “Nepetalactol oxidoreductases, nepetalactol synthases, and microbes capable of producing nepetalactone” (Zymergen Inc., priority 2017, dated 2021).

B1: GAR_NOR15: NOR candidate codon-optimized for S. cerevisiae (SEQ ID NO: 1393), expressed from pESC-URA (protein, listed as Nepeta cataria)
chain: MADKEGEVVCVTGGSGFIGSWLVSLLLRRGYSVRATVKNLGDERETKHLEAIEGADSRLSLFQIDLLDYDSVATAVGDAAGVFHLASPCTIDQVNDPQRELLDPAIKGTLNVLKAAKNLGVRRVVVTSSISAMIASSNSLAETGEDCWIDEDYCRQNGLWYPVSKALAEKAAWKLAEENGLDIVVVNPGMVVGPILPPALNSSMQLMLHVLQGKDFFEGFFMGLVHVKDVALAQILLYENTSASGRHLCVESLSRYDDFAKQMEKLYPEYKLPRFSNNAQHGSLKSDAALKKLRDLGIEFAPLEQIVKDSIESLRSKGYIS
B2: NcatNOR15: candidate nepetalactol oxidoreductase (NOR) from Nepeta cataria, protein SEQ ID NO: 561 (protein, listed as Nepeta cataria)
chain: MAKTPETEHPVKAFGYAATDNSGTFSPFKFSRRATGERDVQFKVLYCGVCHSDLHMVKNEWGVTHYPIVPGHEIVGVATEVGSKVEKVKVGDKVGVGVIVGSCRQCDQCSNDLENYCSKQILTYGAPYLDGTITRGGYSDIMVADEHFIIRWPENFPLDAGAPLLCAGITTYSPLRYFGLDKPGLRVGVNGLGGLGHVAVKFAKAFGTKVTVISSSLRKKKEAVEKLGVDEFLVSTDPEQMQAAIGTLDGIIDTVSAEHSVVSLLSLLKPHGRLIVVGAPEKPHQLPAFPLITGRKSISGSAIGGMKETQEMIDFAAKHNILPDVEVIPIDYINTAMERLLKSDVKYRFVIDVEKSLKA
B3: NcatNOR34: candidate nepetalactol oxidoreductase (NOR) from Nepeta cataria, protein SEQ ID NO: 578 (protein, listed as Nepeta cataria)
chain: MAFCRSSLLLRKALGGSRRAAAAATCSSAYACGWQSERGRWYSGGEGTTISAPGYHVNTAPSHMTGAVFWDKDKPITYEEFEMPRPKANEVLIKTKACGACHSDLHVIKGDLKFPCPCILGHEITGEVVEHGPLTETKYIERYPVGSKVIGAFIMPCGSCFYCSRGEDDLCEPYFAYNRAKGTLYDGQTRLFLRGSGKPVHMWSMSGLAEYCVTPVNGLGALPDTLPYAESSVLGCAVFTAYGAIAHAAEVKPGNSVAVIGIGGVGSSCLQIAKAFGASEIIAVDVEDGKLETAKTFGATHIINSRKEDAIAKIKELTDGRGVDIAVEAIGGPKTFAQCVGSVRAGGKAVMIGLSPTGGKGEVEITQLVRRKVKVIGSYGGRAMTDLPKLVELAEQGTFNLEAAVTRRYKFEEVAQAYQDLQNKTIVGRGVIEIM
B4: NcatNOR21: candidate nepetalactol oxidoreductase (NOR) from Nepeta cataria, protein SEQ ID NO: 566 (protein, listed as Nepeta cataria)
chain: MAKSVNAVGWAARDTSGLLSPLKFARPAAGDRDVQFKVLYCGICHSDLHSIKNEWGNTQYPIVPGHEIVGVVTAVGPKATKFKAGDKVGVGCLVNSCRHCDQCAADLENYCPQLVQTYNSVLADGSVTYGGYSDVMTADEDFVIRWPENFPMDKGAPLLCAGVTTYSPLRYYGLDKPGLHIGVVGLGGLGHVAVKFAKAFGMKVTVISTSAGKKKEAIETLGADAFLISRDASEMQAAAGTLDGMIDTVSAQHPLPPLLSLLKPHGKLILVGAPEKPFELPAFPLLMGRKTVAGSVIGGLKETQEMIDFAAKHNLLPEVEMIPMDYVNTAMERLAKADVKYRFVIDVGNTLTKAD

Assays:
nepetalactol [1] = experiment: Production of nepetalactone from nepetalactol in Saccharomyces cerevisiae strains expressing NOR candidates from 2μ plasmid pESC-URA; type: cell-based; settings: 2% galactose, 100 mg/L of nepetalactol fed, 30° C., 24 hours
Description: 300 μL of ethyl acetate was added to the cultures. The plates were sealed with a PlateLoc Thermal Microplate Sealer and the plates were shaken for one min at 750 rpm. The plates were centrifuged and the ethyl acetate layer was collected and analyzed by liquid chromatography coupled to mass spectrometry (LC-MS). Target analytes were quantified against authentic standards.
The plasmids were individually transformed into chemically competent Saccharomyces cerevisiae cells as described in EXAMPLE 2. Transformants were selected on SD-URA agar plates. Three to four replicates were picked into SD-URA liquid medium and cultured at 30° C. for one to two days with shaking at 1000 rpm. Cultures were glycerol stocked at a final concentration of 16.6% glycerol and stored at −80° C. until later use.
10 μL of the glycerol stocked strains was inoculated into 300 μL of minimal media lacking uracil, and containing 4% glucose in 96-well plates to produce seed cultures. The plates were incubated at 30° C. at 1000 rpm for 1-2 days. 10 μL of the seed cultures was then inoculated into 300 μL of minimal media lacking uracil, and containing 2% galactose and 100 mg/L of nepetalactol. 30 μL of methyl oleate was next added to the wells. The main culture plates were further incubated at 30° C., 1000 rpm for 24 hours before assays were performed to assess cell growth and titer. […]

nepetalactol [2] = experiment: In vitro conversion of nepetalactol to nepetalactone by candidate NORs in clarified cell lysate with NAD+ or NADP+ (GC-MS); type: biochemical; settings: clarified lysate of E. coli BL21 (DE3) expressing the candidate, 30° C., 2 hours
Description: BL21 (DE3) strains were streaked out on LB plates containing kanamycin from glycerol stock and grown overnight at 37° C. A single colony was inoculated into 4 mL of LB medium containing kanamycin in 15 mL disposable culture tubes and incubated overnight at 30° C. with shaking at 250 rpm. 500 μL of the overnight culture was subcultured into 50 mL of LB medium containing kanamycin in a 250 mL baffled flask. The culture was grown at 37° C. and the optical density at 600 nm (OD600) was monitored. When OD600 reached between 0.6-1, the cultures were cooled on ice for 15 minutes. The cultures were then induced with 100 μM of isopropyl β-D-1-thiogalactopyranoside and incubated at 15° C. with shaking at 250 rpm for roughly 20 hours. Cultures were pelleted by centrifugation in 50 mL centrifuge tubes. The supernatant was decanted and the pellets were frozen at −20° C. for later processing.
Pellets were thawed on ice and resuspended with 3 mL of cold lysis buffer: 50 mM sodium phosphate, pH=7.4, 100 mM sodium chloride. All remaining steps were performed either on ice or at 4° C. The cell mixture was transferred to a 15 mL centrifuge tube and disrupted with three rounds of sonication using the Branson Sonifier 450 with a double-level microtip at 70% amplitude. A single round of sonication consisted of 6 cycles of 10 seconds with the sonicator on, and 10 seconds off. Between each round, the cell mixture was allowed to sit on ice for a minute to cool. The lysed cell mixture was transferred to 1.7 mL centrifuge tubes and centrifuged at maximum speed in a microcentrifuge for 20 minutes. The supernatant (clarified cell lysate) was collected in a separate tube and used for in vitro characterization.
The in vitro reactions were setup as follows: 2 μL of 100 mM NAD+ or NADP+ and 10 μL of 100 uM nepetalactol was added to 188 μL of the clarified cell lysate. The reactions were incubated at 30° C. shaking at 200 rpm for 2 hours. […] The organic layer was withdrawn and analyzed with gas chromatography coupled to mass spectrometry (GC-MS). […]

Molecule	nepetalactone produced (titer) (nepetalactol [1]) [mg/L]	oxidation of nepetalactol to nepetalactone (nepetalactol [2])
B1	93	–
B2	–	can oxidize nepetalactol to nepetalactone
B3	–	can oxidize nepetalactol to nepetalactone
B4	–	can oxidize nepetalactol to nepetalactone
